The data set is described as follows: self-splicing fitness, log relative to wild type (ln ratio); higher = more splicing; Tetrahymena group I intron in knt gene, E. coli kanamycin selection, DiMSum; sequences stand for … in CUCUCU…GGAGGGAAAAGUUAUCAGGCAUGCACCUGGUAGCUAGUCUUUAAACCAAUAGAUUGCAUCGGUUUAAAAGGCAAGACCGUCAAAUUGCGGGAAAGGGGUCAACAGCCGUUCAGUACCAAGUCUCAGGGGAAACUUUGAGAUGGCCUUGCAAAGGGUAUGGUAAUAAGCUGACGGACAUGGUCCUAACCACGCAGCCAAGUCCUAAGUCAACAGAUCUUCUGUUGAUAUGGAUGCAGUUCACAGACUAAAUGUCGGUCGGGGAAGAUGUAUUCUUCUCAUAAGAUAUAGUCGGACCUCUCCUUAAUGGGAGCUAGCGGAUGAAGUGAUGCAACACUGGAGCCGCUGGGAACUAAUUUGUAUGCGAAAGUAUAUUGAUUAGUUUUGGAGUACUCGUGGUCG
The gist of the method:
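DiMSum derived fitness as the error-weighted combination of fold changes across replicates, kanamycin versus no kanamycin, normalised to wild type. E. coli BL21(DE3) held the library, which randomised all eight P1ex-region intron nucleotides within the knt kanamycin-resistance gene on pET-22b(+). Six replicate transformations grew overnight at 37°C or 30°C on LB agar with or without 25 μg/mL kanamycin, also containing 100 μg/mL carbenicillin, 50 μM IPTG and 0.2% rhamnose, and pooled colonies were amplicon-sequenced on an Illumina HiSeq 2500.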

From the supplement of paper PMC7877785 come the findings set out here.

± gives the uncertainty stated by the source.

On to UCACAGCAAUAUUACGACAA, for which the “self-splicing fitness (ln)” value is -1.3 ± 0.13 (30 °C) and -0.0758 ± 0.096 (37 °C). In the case of CUUUAGCAAUAUUACGGCCC, the “self-splicing fitness (ln)” value (30 °C) was -1.71 ± 0.47.

As for GUGAAGCAAUAUUACGUCUA, the “self-splicing fitness (ln)” value is, setting by setting: (30 °C) 0.147 ± 0.049; (37 °C) 0.251 ± 0.066. Regarding UCACAGCAAUAUUACGGCUA, the “self-splicing fitness (ln)” value runs as follows: (30 °C) -1.64 ± 0.095; (37 °C) -0.219 ± 0.077. In the same order, the values of GAAAAGCAAUAUUACGUGCG are -1.44 ± 0.095 and 0.264 ± 0.12. Taken in the same sequence, the figures for CAUCAGCAAUAUUACGGUAU were -2.95 ± 0.13 and -1.13 ± 0.14.

Turning to CCACAGCAAUAUUACGGGGG, the “self-splicing fitness (ln)” value runs as follows: (30 °C) -2.71 ± 0.093; (37 °C) -2.4 ± 0.16. Taken in the same sequence, the figures for UAUGAGCAAUAUUACGAGGG were -3.93 ± 0.42 and -2.66 ± 0.29. In the same order, the values of AAUAAGCAAUAUUACGCCCU are -0.352 ± 0.12 and 0.525 ± 0.15. Consider CAACAGCAAUAUUACGUCCU, for which the “self-splicing fitness (ln)” value is, setting by setting: (30 °C) -2.08 ± 0.071; (37 °C) -1.6 ± 0.094. Consider UACGAGCAAUAUUACGAUGC, for which the “self-splicing fitness (ln)” value (37 °C) is -2.04 ± 0.33. GCGAAGCAAUAUUACGCUUA: the “self-splicing fitness (ln)” value is, setting by setting: (30 °C) -2.1 ± 0.21; (37 °C) -0.759 ± 0.2. Turning to GUGGAGCAAUAUUACGUGAA, the “self-splicing fitness (ln)” value (37 °C) is -0.49 ± 0.28.

As to CUGAAGCAAUAUUACGGUUC, the “self-splicing fitness (ln)” value reads like this: (30 °C) -3.05 ± 0.18; (37 °C) -3.5 ± 0.3. In the same order, the values of ACAGAGCAAUAUUACGUGAU are -2.97 ± 0.1 and -2.08 ± 0.15.

Take CCCGAGCAAUAUUACGAAGA: the “self-splicing fitness (ln)” value (30 °C) was -2.86 ± 0.31. With GCUUAGCAAUAUUACGCAGG, the “self-splicing fitness (ln)” value is -1.27 ± 0.19 (30 °C) and -2.97 ± 0.27 (37 °C). In the same order, the values of AAGCAGCAAUAUUACGGCUC are -1.67 ± 0.093 and -0.463 ± 0.14.

UGUCAGCAAUAUUACGCAUU: the “self-splicing fitness (ln)” value runs as follows: (30 °C) -1.74 ± 0.09; (37 °C) -0.133 ± 0.092. Taken in the same sequence, the figures for UACAAGCAAUAUUACGCGAG were -1.62 ± 0.11 and -0.536 ± 0.1.

Take AAGUAGCAAUAUUACGACGA: the “self-splicing fitness (ln)” value is 0.0522 ± 0.098 (30 °C) and 0.0374 ± 0.11 (37 °C).

For the sequence UUCCAGCAAUAUUACGCGUA, the “self-splicing fitness (ln)” value is -0.454 ± 0.087 (30 °C) and 0.0549 ± 0.083 (37 °C).

Take UUAAAGCAAUAUUACGUGCC: the “self-splicing fitness (ln)” value runs as follows: (30 °C) -0.9 ± 0.11; (37 °C) -0.509 ± 0.16.

Regarding GUUGAGCAAUAUUACGCACA, the “self-splicing fitness (ln)” value runs as follows: (30 °C) -1.83 ± 0.14; (37 °C) -0.945 ± 0.15. In the same order, the values of GUGGAGCAAUAUUACGCGCG are -1.79 ± 0.25 and -2.11 ± 0.31.

As to CGUUAGCAAUAUUACGUGUA, the “self-splicing fitness (ln)” value by setting is: (30 °C) -3.37 ± 0.25; (37 °C) -3.03 ± 0.34.

As to CCAAAGCAAUAUUACGAUGC, the “self-splicing fitness (ln)” value runs as follows: (30 °C) -3.78 ± 0.19; (37 °C) -3.64 ± 0.24. Taken in the same sequence, the figures for GGGAAGCAAUAUUACGUCGU were -0.671 ± 0.16 and -0.462 ± 0.16. Taken in the same sequence, the figures for CCUCAGCAAUAUUACGUCUU were -3.91 ± 0.27 and -2.55 ± 0.26. AACGAGCAAUAUUACGAGCU: the “self-splicing fitness (ln)” value is, setting by setting: (30 °C) -4.74 ± 0.36; (37 °C) -3.22 ± 0.27. With CGAGAGCAAUAUUACGUAAU, under “37 °C”, the “self-splicing fitness (ln)” value is -2.01 ± 0.3. Take UACUAGCAAUAUUACGACCA: the “self-splicing fitness (ln)” value was 0.122 ± 0.088 (30 °C) and -0.816 ± 0.1 (37 °C).

For CCGCAGCAAUAUUACGAUAG, the “self-splicing fitness (ln)” value runs as follows: (30 °C) -0.786 ± 0.052; (37 °C) 0.602 ± 0.07. Consider CUUUAGCAAUAUUACGGCAU, for which the “self-splicing fitness (ln)” value is, setting by setting: (30 °C) -3.42 ± 0.39; (37 °C) -2.9 ± 0.4. Taken in the same sequence, the figures for CAAGAGCAAUAUUACGAAGG were -2.06 ± 0.17 and -0.821 ± 0.19. As for AACUAGCAAUAUUACGACUU, the “self-splicing fitness (ln)” value is -0.0929 ± 0.069 (30 °C) and 0.236 ± 0.09 (37 °C).

Turning to CUAUAGCAAUAUUACGAUGG, the “self-splicing fitness (ln)” value is -3.44 ± 0.24 (30 °C) and -1.18 ± 0.14 (37 °C). As to AGCAAGCAAUAUUACGUGCC, the “self-splicing fitness (ln)” value (37 °C) was -1.63 ± 0.27.

Take UUGCAGCAAUAUUACGUACA: the “self-splicing fitness (ln)” value is 0.118 ± 0.11 (30 °C) and -0.0402 ± 0.13 (37 °C). With ACAAAGCAAUAUUACGUGUC, the “self-splicing fitness (ln)” value runs as follows: (30 °C) -3.69 ± 0.14; (37 °C) -3 ± 0.16.

As to AGGCAGCAAUAUUACGGCCG, the “self-splicing fitness (ln)” value reads like this: (30 °C) -1.12 ± 0.13; (37 °C) -0.985 ± 0.17. In the same order, the values of AGGCAGCAAUAUUACGAGCA are -1.96 ± 0.12 and -0.225 ± 0.12. Taken in the same sequence, the figures for AAACAGCAAUAUUACGUUAC were -3.19 ± 0.16 and -2.56 ± 0.26. Taken in the same sequence, the figures for CAUCAGCAAUAUUACGGAGA were -1.78 ± 0.14 and -1.3 ± 0.12. Turning to GCAGAGCAAUAUUACGGUUC, the “self-splicing fitness (ln)” value runs as follows: (30 °C) -2.66 ± 0.28; (37 °C) -1.58 ± 0.24. In the same order, the values of UGCAAGCAAUAUUACGUUAA are -2.27 ± 0.13 and -0.494 ± 0.1.

As to GGACAGCAAUAUUACGCCAG, the “self-splicing fitness (ln)” value is -2.17 ± 0.22 (30 °C) and -2.07 ± 0.35 (37 °C).

In the case of CCUUAGCAAUAUUACGGACA, the “self-splicing fitness (ln)” value (30 °C) was -2.53 ± 0.32. For the sequence GUUUAGCAAUAUUACGCUAG, the “self-splicing fitness (ln)” value (30 °C) was -2.38 ± 0.16 and the “self-splicing fitness (ln)” value (37 °C) was -0.42 ± 0.13. As for GGCGAGCAAUAUUACGGUCU, the “self-splicing fitness (ln)” value (30 °C) was -1.89 ± 0.2 and the “self-splicing fitness (ln)” value (37 °C) was -1.03 ± 0.21. Regarding AUGGAGCAAUAUUACGGUGU, the “self-splicing fitness (ln)” value by setting is: (30 °C) -2.12 ± 0.18; (37 °C) -0.816 ± 0.24.

As for CGUCAGCAAUAUUACGGAGC, the “self-splicing fitness (ln)” value runs as follows: (30 °C) -3.85 ± 0.42; (37 °C) -1.95 ± 0.26.

Consider CGUCAGCAAUAUUACGAGAU, for which the “self-splicing fitness (ln)” value (30 °C) was -3.93 ± 0.21 and the “self-splicing fitness (ln)” value (37 °C) is -2.65 ± 0.17. In the same order, the values of GGACAGCAAUAUUACGGUAA are -1.34 ± 0.082 and -0.697 ± 0.075.

With UGUUAGCAAUAUUACGCGAG, the “self-splicing fitness (ln)” value by setting is: (30 °C) -3.15 ± 0.25; (37 °C) -2.42 ± 0.19. Regarding CCCAAGCAAUAUUACGACUA, the “self-splicing fitness (ln)” value is -2.52 ± 0.17 (30 °C) and -2.31 ± 0.18 (37 °C).

Consider CGCAAGCAAUAUUACGUAAC, for which the “self-splicing fitness (ln)” value is -3.76 ± 0.23 (30 °C) and -2.31 ± 0.19 (37 °C). In the same order, the values of GUAUAGCAAUAUUACGGAAU are -2.27 ± 0.23 and -2.39 ± 0.21. In the same order, the values of GCGCAGCAAUAUUACGUCUG are -2.4 ± 0.14 and -2.99 ± 0.3. Turning to UAAAAGCAAUAUUACGCCAC, the “self-splicing fitness (ln)” value (37 °C) is -2.02 ± 0.36. For the sequence GAUCAGCAAUAUUACGACCC, the “self-splicing fitness (ln)” value was -2.02 ± 0.2 (30 °C) and -1.65 ± 0.29 (37 °C). In the same order, the values of AGUGAGCAAUAUUACGGUUU are -2.09 ± 0.14 and -2.28 ± 0.33. Taken in the same sequence, the figures for UUUUAGCAAUAUUACGGCAU were -2.8 ± 0.41 and -0.972 ± 0.29. Taken in the same sequence, the figures for UUGCAGCAAUAUUACGCGUA were -0.889 ± 0.13 and -0.457 ± 0.11.

Regarding AUUGAGCAAUAUUACGCGUU, the “self-splicing fitness (ln)” value was -3.02 ± 0.26 (30 °C) and -2.34 ± 0.23 (37 °C).

With AUCCAGCAAUAUUACGCCGG, the “self-splicing fitness (ln)” value runs as follows: (30 °C) -3.51 ± 0.24; (37 °C) -2.36 ± 0.41. In the same order, the values of UGGCAGCAAUAUUACGAGGA are -2.34 ± 0.34 and -1.75 ± 0.26. In the same order, the values of ACUUAGCAAUAUUACGCAAG are -2.24 ± 0.17 and -1.32 ± 0.14. Taken in the same sequence, the figures for UCACAGCAAUAUUACGCCGU were -4.25 ± 0.46 and -3.02 ± 0.35. On to UCAUAGCAAUAUUACGACCG, for which the “self-splicing fitness (ln)” value (30 °C) was -1.36 ± 0.16 and the “self-splicing fitness (ln)” value (37 °C) is -0.325 ± 0.22. In the case of UAACAGCAAUAUUACGCGCC, the “self-splicing fitness (ln)” value runs as follows: (30 °C) -1.47 ± 0.1; (37 °C) -0.587 ± 0.13. As to GACAAGCAAUAUUACGUAGA, the “self-splicing fitness (ln)” value (30 °C) is -2.31 ± 0.092 and the “self-splicing fitness (ln)” value (37 °C) was -0.707 ± 0.097. In the same order, the values of ACACAGCAAUAUUACGCCUU are -1.62 ± 0.076 and -0.434 ± 0.091. In the same order, the values of AUCGAGCAAUAUUACGUCGA are -2.83 ± 0.19 and -2.03 ± 0.19. In the same order, the values of GCCCAGCAAUAUUACGCCGG are -3.34 ± 0.27 and -2.9 ± 0.47. GUUCAGCAAUAUUACGCAGU: the “self-splicing fitness (ln)” value is, setting by setting: (30 °C) -1.18 ± 0.14; (37 °C) 0.201 ± 0.22. Consider ACUAAGCAAUAUUACGGGAA, for which the “self-splicing fitness (ln)” value was -2.17 ± 0.11 (30 °C) and -1.75 ± 0.15 (37 °C).
